*1 amine or outer side, *2 acyl side, *3 side chain or, on linkers, in order; H or OH if unused. Side-chain parts run from the residue outwards. [ ]: non-standard residue; d: D form. The star is where a group is joined. PEG12 = NCCOCCOCCOCCOCCOCCOCCOCCOCCOCCOCCOCCOCCC(=O)O; γGlu = O=C(O)[C@H](CCC(=O)[*:2])N[*:1]; 1Nal = N[C@@H](Cc1cccc2ccccc12)C(=O)O; Stearoyl = CCCCCCCCCCCCCCCCCC(=O)*; Palmitoyl = CCCCCCCCCCCCCCCC(=O)*; Nle = CCCC[C@H](N)C(=O)O; Aib = CC(C)(N)C(=O)O
Target: T1, RXFP1 receptor (UniProt Q9HBX9 1-757, limits assumed)
T1 sequence (looked up): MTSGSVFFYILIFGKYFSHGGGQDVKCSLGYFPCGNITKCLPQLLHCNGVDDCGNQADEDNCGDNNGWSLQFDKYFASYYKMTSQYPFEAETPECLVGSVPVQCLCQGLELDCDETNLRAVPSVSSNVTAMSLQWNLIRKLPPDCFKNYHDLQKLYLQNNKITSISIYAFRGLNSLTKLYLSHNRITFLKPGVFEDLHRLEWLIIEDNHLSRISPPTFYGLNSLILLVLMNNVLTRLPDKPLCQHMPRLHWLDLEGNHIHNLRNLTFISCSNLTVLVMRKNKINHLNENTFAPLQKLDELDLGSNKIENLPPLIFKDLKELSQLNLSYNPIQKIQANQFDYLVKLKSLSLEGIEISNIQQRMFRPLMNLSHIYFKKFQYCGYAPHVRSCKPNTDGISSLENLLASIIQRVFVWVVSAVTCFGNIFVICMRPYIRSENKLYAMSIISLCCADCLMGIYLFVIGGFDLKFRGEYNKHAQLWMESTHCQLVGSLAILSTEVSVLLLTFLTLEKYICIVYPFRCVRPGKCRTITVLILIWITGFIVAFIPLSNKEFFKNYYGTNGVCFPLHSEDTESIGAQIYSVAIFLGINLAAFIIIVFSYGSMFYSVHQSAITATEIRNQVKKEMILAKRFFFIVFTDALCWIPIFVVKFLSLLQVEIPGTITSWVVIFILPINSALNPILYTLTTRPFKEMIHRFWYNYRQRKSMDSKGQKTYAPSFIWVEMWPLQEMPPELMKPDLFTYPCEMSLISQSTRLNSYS
Test: cell-based or functional assay

B1: peptide of SEQ ID NO: 27 (peptide)
peptide: Ac-LEGREKVR[Aib]K(Ac)I[Aib][Aib]EG[Nle]STWS[Aib]RKK(Ac)[PEG12]K([γGlu-γGlu-γGlu-Palmitoyl])-NH2
SMILES: CCCCCCCCCCCCCCCC(=O)N[C@@H](CCC(=O)N[C@@H](CCC(=O)N[C@@H](CCC(=O)NCCCC[C@H](NC(=O)CCOCCOCCOCCOCCOCCOCCOCCOCCOCCOCCOCCOCCNC(=O)[C@H](CCCCNC(C)=O)NC(=O)[C@H](CCCCN)NC(=O)[C@H](CCCNC(=N)N)NC(=O)C(C)(C)NC(=O)[C@H](CO)NC(=O)[C@H](Cc1c[nH]c2ccccc12)NC(=O)[C@@H](NC(=O)[C@H](CO)NC(=O)[C@H](CCCC)NC(=O)CNC(=O)[C@H](CCC(=O)O)NC(=O)C(C)(C)NC(=O)C(C)(C)NC(=O)[C@@H](NC(=O)[C@H](CCCCNC(C)=O)NC(=O)C(C)(C)NC(=O)[C@H](CCCNC(=N)N)NC(=O)[C@@H](NC(=O)[C@H](CCCCN)NC(=O)[C@H](CCC(=O)O)NC(=O)[C@H](CCCNC(=N)N)NC(=O)CNC(=O)[C@H](CCC(=O)O)NC(=O)[C@H](CC(C)C)NC(C)=O)C(C)C)[C@@H](C)CC)[C@@H](C)O)C(N)=O)C(=O)O)C(=O)O)C(=O)O
Question: Which results are given for B1?
Answer: EC50 (nM), OVCAR 5 cells (cAMP): 0.3 nM; EMax, OVCAR 5 cells (cAMP): 86%

B2: peptide of SEQ ID NO: 28 (peptide)
peptide: Ac-LEGREKVR[Aib]QI[Aib][Aib]EG[Nle]STWS[Aib]RKK(Ac)[PEG12]K([γGlu-γGlu-γGlu-Palmitoyl])-NH2
SMILES: CCCCCCCCCCCCCCCC(=O)N[C@@H](CCC(=O)N[C@@H](CCC(=O)N[C@@H](CCC(=O)NCCCC[C@H](NC(=O)CCOCCOCCOCCOCCOCCOCCOCCOCCOCCOCCOCCOCCNC(=O)[C@H](CCCCNC(C)=O)NC(=O)[C@H](CCCCN)NC(=O)[C@H](CCCNC(=N)N)NC(=O)C(C)(C)NC(=O)[C@H](CO)NC(=O)[C@H](Cc1c[nH]c2ccccc12)NC(=O)[C@@H](NC(=O)[C@H](CO)NC(=O)[C@H](CCCC)NC(=O)CNC(=O)[C@H](CCC(=O)O)NC(=O)C(C)(C)NC(=O)C(C)(C)NC(=O)[C@@H](NC(=O)[C@H](CCC(N)=O)NC(=O)C(C)(C)NC(=O)[C@H](CCCNC(=N)N)NC(=O)[C@@H](NC(=O)[C@H](CCCCN)NC(=O)[C@H](CCC(=O)O)NC(=O)[C@H](CCCNC(=N)N)NC(=O)CNC(=O)[C@H](CCC(=O)O)NC(=O)[C@H](CC(C)C)NC(C)=O)C(C)C)[C@@H](C)CC)[C@@H](C)O)C(N)=O)C(=O)O)C(=O)O)C(=O)O
Question: B2 was tested. Which “EC50 (nM), OVCAR 5 cells (cAMP)” value did it give?
Answer: 4.64 nM

Question: What about the “EMax, OVCAR 5 cells (cAMP)” value of the same binder?
Answer: 78%

B3: peptide of SEQ ID NO: 29 (peptide)
peptide: Ac-LEGREKVRAK(Ac)I[Aib][Aib]EG[Nle]ST[1Nal]S[Aib]RK[PEG12]K([γGlu-γGlu-γGlu-Palmitoyl])-NH2
SMILES: CCCCCCCCCCCCCCCC(=O)N[C@@H](CCC(=O)N[C@@H](CCC(=O)N[C@@H](CCC(=O)NCCCC[C@H](NC(=O)CCOCCOCCOCCOCCOCCOCCOCCOCCOCCOCCOCCOCCNC(=O)[C@H](CCCCN)NC(=O)[C@H](CCCNC(=N)N)NC(=O)C(C)(C)NC(=O)[C@H](CO)NC(=O)[C@H](Cc1cccc2ccccc12)NC(=O)[C@@H](NC(=O)[C@H](CO)NC(=O)[C@H](CCCC)NC(=O)CNC(=O)[C@H](CCC(=O)O)NC(=O)C(C)(C)NC(=O)C(C)(C)NC(=O)[C@@H](NC(=O)[C@H](CCCCNC(C)=O)NC(=O)[C@H](C)NC(=O)[C@H](CCCNC(=N)N)NC(=O)[C@@H](NC(=O)[C@H](CCCCN)NC(=O)[C@H](CCC(=O)O)NC(=O)[C@H](CCCNC(=N)N)NC(=O)CNC(=O)[C@H](CCC(=O)O)NC(=O)[C@H](CC(C)C)NC(C)=O)C(C)C)[C@@H](C)CC)[C@@H](C)O)C(N)=O)C(=O)O)C(=O)O)C(=O)O
Question: B3 was tested. Which “EC50 (nM), OVCAR 5 cells (cAMP)” value did it give?
Answer: 2.5 nM

Question: And the “EMax, OVCAR 5 cells (cAMP)” value?
Answer: 78%

B4: peptide of SEQ ID NO: 30 (peptide)
peptide: Ac-LEGREKVRAQI[Aib][Aib]EG[Nle]STWS[Aib]RK[PEG12]K([γGlu-γGlu-γGlu-Stearoyl])-NH2
SMILES: CCCCCCCCCCCCCCCCCC(=O)N[C@@H](CCC(=O)N[C@@H](CCC(=O)N[C@@H](CCC(=O)NCCCC[C@H](NC(=O)CCOCCOCCOCCOCCOCCOCCOCCOCCOCCOCCOCCOCCNC(=O)[C@H](CCCCN)NC(=O)[C@H](CCCNC(=N)N)NC(=O)C(C)(C)NC(=O)[C@H](CO)NC(=O)[C@H](Cc1c[nH]c2ccccc12)NC(=O)[C@@H](NC(=O)[C@H](CO)NC(=O)[C@H](CCCC)NC(=O)CNC(=O)[C@H](CCC(=O)O)NC(=O)C(C)(C)NC(=O)C(C)(C)NC(=O)[C@@H](NC(=O)[C@H](CCC(N)=O)NC(=O)[C@H](C)NC(=O)[C@H](CCCNC(=N)N)NC(=O)[C@@H](NC(=O)[C@H](CCCCN)NC(=O)[C@H](CCC(=O)O)NC(=O)[C@H](CCCNC(=N)N)NC(=O)CNC(=O)[C@H](CCC(=O)O)NC(=O)[C@H](CC(C)C)NC(C)=O)C(C)C)[C@@H](C)CC)[C@@H](C)O)C(N)=O)C(=O)O)C(=O)O)C(=O)O
Question: What does the source list for B4?
Answer: EC50 (nM), OVCAR 5 cells (cAMP): 0.92 nM; EMax, OVCAR 5 cells (cAMP): 89%

B5: peptide of SEQ ID NO: 31 (peptide)
peptide: Ac-LEGREKVRAQI[Aib][Aib]EG[Nle]STWS[Aib]RKK[PEG12]K([γGlu-γGlu-γGlu-Stearoyl])-NH2
SMILES: CCCCCCCCCCCCCCCCCC(=O)N[C@@H](CCC(=O)N[C@@H](CCC(=O)N[C@@H](CCC(=O)NCCCC[C@H](NC(=O)CCOCCOCCOCCOCCOCCOCCOCCOCCOCCOCCOCCOCCNC(=O)[C@H](CCCCN)NC(=O)[C@H](CCCCN)NC(=O)[C@H](CCCNC(=N)N)NC(=O)C(C)(C)NC(=O)[C@H](CO)NC(=O)[C@H](Cc1c[nH]c2ccccc12)NC(=O)[C@@H](NC(=O)[C@H](CO)NC(=O)[C@H](CCCC)NC(=O)CNC(=O)[C@H](CCC(=O)O)NC(=O)C(C)(C)NC(=O)C(C)(C)NC(=O)[C@@H](NC(=O)[C@H](CCC(N)=O)NC(=O)[C@H](C)NC(=O)[C@H](CCCNC(=N)N)NC(=O)[C@@H](NC(=O)[C@H](CCCCN)NC(=O)[C@H](CCC(=O)O)NC(=O)[C@H](CCCNC(=N)N)NC(=O)CNC(=O)[C@H](CCC(=O)O)NC(=O)[C@H](CC(C)C)NC(C)=O)C(C)C)[C@@H](C)CC)[C@@H](C)O)C(N)=O)C(=O)O)C(=O)O)C(=O)O
Question: With B5 as the binder, how does the “EC50 (nM), OVCAR 5 cells (cAMP)” value read?
Answer: 0.71 nM

Question: What about the “EMax, OVCAR 5 cells (cAMP)” value of the same binder?
Answer: 86%

B6: peptide of SEQ ID NO: 32 (peptide)
peptide: Ac-LEGREKVRAK(Ac)I[Aib][Aib]EG[Nle]STWS[Aib]RKK[PEG12]K([γGlu-γGlu-γGlu-Stearoyl])-NH2
SMILES: CCCCCCCCCCCCCCCCCC(=O)N[C@@H](CCC(=O)N[C@@H](CCC(=O)N[C@@H](CCC(=O)NCCCC[C@H](NC(=O)CCOCCOCCOCCOCCOCCOCCOCCOCCOCCOCCOCCOCCNC(=O)[C@H](CCCCN)NC(=O)[C@H](CCCCN)NC(=O)[C@H](CCCNC(=N)N)NC(=O)C(C)(C)NC(=O)[C@H](CO)NC(=O)[C@H](Cc1c[nH]c2ccccc12)NC(=O)[C@@H](NC(=O)[C@H](CO)NC(=O)[C@H](CCCC)NC(=O)CNC(=O)[C@H](CCC(=O)O)NC(=O)C(C)(C)NC(=O)C(C)(C)NC(=O)[C@@H](NC(=O)[C@H](CCCCNC(C)=O)NC(=O)[C@H](C)NC(=O)[C@H](CCCNC(=N)N)NC(=O)[C@@H](NC(=O)[C@H](CCCCN)NC(=O)[C@H](CCC(=O)O)NC(=O)[C@H](CCCNC(=N)N)NC(=O)CNC(=O)[C@H](CCC(=O)O)NC(=O)[C@H](CC(C)C)NC(C)=O)C(C)C)[C@@H](C)CC)[C@@H](C)O)C(N)=O)C(=O)O)C(=O)O)C(=O)O
Question: For B6, which “EC50 (nM), OVCAR 5 cells (cAMP)” value is on record?
Answer: 1.04 nM

Question: What about the “EMax, OVCAR 5 cells (cAMP)” value of the same binder?
Answer: 96%

B7: peptide of SEQ ID NO: 33 (peptide)
peptide: Ac-LEGREKVRAK(Ac)I[Aib][Aib]EG[Nle]STWS[Aib]RKK(Ac)[PEG12]K([γGlu-γGlu-γGlu-Stearoyl])-NH2
SMILES: CCCCCCCCCCCCCCCCCC(=O)N[C@@H](CCC(=O)N[C@@H](CCC(=O)N[C@@H](CCC(=O)NCCCC[C@H](NC(=O)CCOCCOCCOCCOCCOCCOCCOCCOCCOCCOCCOCCOCCNC(=O)[C@H](CCCCNC(C)=O)NC(=O)[C@H](CCCCN)NC(=O)[C@H](CCCNC(=N)N)NC(=O)C(C)(C)NC(=O)[C@H](CO)NC(=O)[C@H](Cc1c[nH]c2ccccc12)NC(=O)[C@@H](NC(=O)[C@H](CO)NC(=O)[C@H](CCCC)NC(=O)CNC(=O)[C@H](CCC(=O)O)NC(=O)C(C)(C)NC(=O)C(C)(C)NC(=O)[C@@H](NC(=O)[C@H](CCCCNC(C)=O)NC(=O)[C@H](C)NC(=O)[C@H](CCCNC(=N)N)NC(=O)[C@@H](NC(=O)[C@H](CCCCN)NC(=O)[C@H](CCC(=O)O)NC(=O)[C@H](CCCNC(=N)N)NC(=O)CNC(=O)[C@H](CCC(=O)O)NC(=O)[C@H](CC(C)C)NC(C)=O)C(C)C)[C@@H](C)CC)[C@@H](C)O)C(N)=O)C(=O)O)C(=O)O)C(=O)O
Question: For B7, which “EC50 (nM), OVCAR 5 cells (cAMP)” value is on record?
Answer: 0.61 nM

Question: What about the “EMax, OVCAR 5 cells (cAMP)” value of the same binder?
Answer: 100%

Question: Ac-LEGREKVRAK(Ac)I[Aib][Aib]EG[Nle]STWS[Aib]RK[PEG12]K([γGlu-γGlu-γGlu-Stearoyl])-NH2 [peptide of SEQ ID NO: 34] was tested. Which “EC50 (nM), OVCAR 5 cells (cAMP)” value did it give?
Answer: 4.73 nM

Question: What about the “EMax, OVCAR 5 cells (cAMP)” value of the same binder?
Answer: 95%

— US20190233493A1 (Sanofi, published 2019)
